Laboratory results published in US20220195023A1 (ATRECA, published 2022).

Target: T1, CSP Protein (Plasmodium falciparum, UniProt Q7K740 19-374)
T1 construct: also called circumsporozoite protein; complete CSP protein
Assay: SPR, antibody on chip;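 note: antibodies immobilized on a Carterra chip, directly or via anti-human Fc capture, at two spots each, with CSP flowed over at 4-5 concentrations peaking at 0.5-8 µg/mL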
Description: For SPR, each antibody was either directly coupled to a Carterra Chip or coupled using a goat anti-human Fc antibody. The uncoupled antibodies were washed off and various concentration gradients of the targets were flowed over the antibodies, where the highest concentration of each target was in the range 0.5-8 μg/mL. Each antibody was immobilized in two different locations on the chip to allow for duplicate measurements. The affinity for each antibody-target combination was determined using 4-5 target concentrations in Mathematica software. If variation between the two duplicates was >3-fold, the antibody-target measurement was repeated.

T1 sequence (Q7K740 19-374 limits assumed): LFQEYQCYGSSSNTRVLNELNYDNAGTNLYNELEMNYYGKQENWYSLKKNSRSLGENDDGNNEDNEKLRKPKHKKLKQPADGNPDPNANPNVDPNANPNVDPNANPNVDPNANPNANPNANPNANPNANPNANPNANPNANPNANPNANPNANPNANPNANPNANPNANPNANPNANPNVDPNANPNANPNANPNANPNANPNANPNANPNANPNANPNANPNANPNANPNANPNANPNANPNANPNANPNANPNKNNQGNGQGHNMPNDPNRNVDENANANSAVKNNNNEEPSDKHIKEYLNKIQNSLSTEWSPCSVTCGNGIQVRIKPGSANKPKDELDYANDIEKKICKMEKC

Binder | Kd [nM]
AB-007028 (antibody, V domains shown) VH: QMQLVESGGGVVQPGRSLRLSCAASGFTFSTYAMHWVRQAPGQGLQWVAVISYHSTNKYYEDSVRGRFTISRDNSKNTLYLQMNSLRAEDTAVYYCARDGYSSSFFDFWGQGTLVTVSS VL: DIQMTQSPSTLSASVGDRVTITCRASQSISRWLAWYQQQPGKAPKLLMSGASVLESGVPSRFSGSGSGTEFTLTISSLQPDDFATYYCQHYNSYFVTFGQGTKVEIK | 0.0457
AB-007037 (antibody, V domains shown) VH: QMQLVESGGGVVQPGRSLRLSCTASGFTFSTYAMHWVRQSPGQGLQWVAVISYHSTNKYYEDSVKGRFTISRDNSKNTLYLQMNSLRAEDTAVYYCARDGYSSSFFDFWGQGTLVTVSS VL: DIQMTQSPSTLSASVGDRVAITCRASQSISRWLAWYQQQPGKAPKLLMSGASVLESGVPSRFSGSGSGTEFTLTISSLQPDDFATYYCQHYNSYFVTFGQGTKVEIK | 0.0346
AB-007030 (antibody, V domains shown) VH: QMQLVESGGGVVQPGRSLRLSCTASGFTFSTYAMHWVRQSPGQGLEWVAVISYHSTNKYYADSVRGRFTISRDNSKNTLYLQMNSLRAEDTAVYYCARDGYSSSFFDFWGQGTLVTVSS VL: DIQMTQSPSTLSASVGDRVAITCRASQSISRWLAWYQQQPGKAPKLLMSGASVLESGVPSRFSGSGSGTEFTLTISSLQPDDFATYYCQHYNSYFVTFGQGTKVEIK | 0.132
AB-007044 (antibody, V domains shown) VH: QMQLVESGGGVVQPGRSLRLSCTASGFTFSTYAMHWVRQSPGQGLQWVAVISYHSTNKYYEESVRGRFTISRDNSKNTLYLQMNSLRAEDTAVYYCARDGYSSSFFDFWGQGTLVTVSS VL: DIQMTQSPSTLSASVGDRVAITCRASQSISRWLAWYQQQPGKAPKLLMSGASVLESGVPSRFSGSGSGTEFTLTISSLQPDDFATYYCQHYNSYFVTFGQGTKVEIK | 0.0319
AB-007041 (antibody, V domains shown) VH: QMQLVESGGGVVQPGRSLRLSCTASGFTFSDYAMHWVRQSPGQGLQWVAVISYHSTNKYYEDSVRGRFTISRDNSKNTLYLQMNSLRAEDTAVYYCARDGYSSSFFDFWGQGTLVTVSS VL: DIQMTQSPSTLSASVGDRVAITCRASQSISRWLAWYQQQPGKAPKLLMSGASVLESGVPSRFSGSGSGTEFTLTISSLQPDDFATYYCQHYNSYFVTFGQGTKVEIK | 0.0439
AB-007040 (antibody, V domains shown) VH: QMQLVESGGGVVQPGRSLRLSCTASGFTFSTYAMHWVRQSPGQGLQWVAVISYHSTNKYYEDSVRGRFTISRDNSKNTLYLQMNSLRAEDTAVYYCARDGYSSSFFDFWGQGTLVTVSS VL: DIQMTQSPSTLSASVGDRVAITCRASQSISRWLAWYQQQPGKAPKLLMSGASVLESGVPSRFSGSGSGTEFTLTISSLQPDDFATYYCQHYNSYYVTFGQGTKVEIK | 0.0447
AB-007043 (antibody, V domains shown) VH: QMQLVESGGGVVQPGRSLRLSCTASGFTFSTYAMHWVRQSPGQGLQWVAVISYHSTNKYYEDSVRGRFTISRDNSKNTLYLQMNSLRAEDTAVYYCARDGYSSSFFDFWGQGTLVTVSS VL: DIQMTQSPSTLSASVGDRVAITCRASQSISRWLAWYQQQPGKAPKLLMSGASVLEDGVPSRFSGSGSGTEFTLTISSLQPDDFATYYCQHYNSYFVTFGQGTKVEIK | 0.0426
AB-007034 (antibody, V domains shown) VH: QVQLVESGGGVVQPGRSLRLSCAASGFTFSTYAMHWVRQAPGQGLEWVAVISYHSTNKYYADSVRGRFTISRDNSKNTLYLQMNSLRAEDTAVYYCARDGYSSSFFDFWGQGTLVTVSS VL: DIQMTQSPSTLSASVGDRVTITCRASQSISRWLAWYQQQPGKAPKLLISGASVLESGVPSRFSGSGSGTEFTLTISSLQPDDFATYYCQHYNSYFVTFGQGTKVEIK | 0.0824
AB-007035 (antibody, V domains shown) VH: QMQLVESGGGVVQPGRSLRLSCTASGFTFSSYAMHWVRQSPGQGLQWVAVISYHSTNKYYEDSVRGRFTISRDNSKNTLYLQMNSLRAEDTAVYYCARDGYSSSFFDFWGQGTLVTVSS VL: DIQMTQSPSTLSASVGDRVAITCRASQSISRWLAWYQQQPGKAPKLLMSGASVLESGVPSRFSGSGSGTEFTLTISSLQPDDFATYYCQHYNSYFVTFGQGTKVEIK | 0.0513
AB-007047 (antibody, V domains shown) VH: QMQLVESGGGVVQPGRSLRLSCTASGFTFSNYAMHWVRQSPGQGLQWVAVISYHSTNKYYEDSVRGRFTISRDNSKNTLYLQMNSLRAEDTAVYYCARDGYSSSFFDFWGQGTLVTVSS VL: DIQMTQSPSTLSASVGDRVAITCRASQSISRWLAWYQQQPGKAPKLLMSGASVLESGVPSRFSGSGSGTEFTLTISSLQPDDFATYYCQHYNSYFVTFGQGTKVEIK | 0.175
AB-007042 (antibody, V domains shown) VH: QMQLVESGGGVVQPGRSLRLSCTASGFTFSTYAMHWVRQSPGQGLQWVAVISYHSTNKYYEDSVRGRFTISRDNSKNTLYLQMNSLRAEDTAVYYCARDGYSSSFFDFWGQGTLVTVSS VL: DIQMTQSPSTLSASVGDRVAITCRASQDISRWLAWYQQQPGKAPKLLMSGASVLESGVPSRFSGSGSGTEFTLTISSLQPDDFATYYCQHYNSYFVTFGQGTKVEIK | 0.034
AB-007050 (antibody, V domains shown) VH: QMQLVESGGGVVQPGRSLRLSCTASGFTFSTYAMHWVRQSPGQGLQWVAVISQHSTNKYYEDSVRGRFTISRDNSKNTLYLQMNSLRAEDTAVYYCARDGYSSSFFDFWGQGTLVTVSS VL: DIQMTQSPSTLSASVGDRVAITCRASQSISRWLAWYQQQPGKAPKLLMSGASVLESGVPSRFSGSGSGTEFTLTISSLQPDDFATYYCQHYNSYFVTFGQGTKVEIK | 0.147
AB-007033 (antibody, V domains shown) VH: QMQLVESGGGVVQPGRSLRLSCAASGFTFSTYAMHWVRQAPGQGLEWVAVISYHSTNKYYADSVRGRFTISRDNSKNTLYLQMNSLRAEDTAVYYCARDGYSSSFFDFWGQGTLVTVSS VL: DIQMTQSPSTLSASVGDRVTITCRASQSISRWLAWYQQQPGKAPKLLMSGASVLESGVPSRFSGSGSGTEFTLTISSLQPDDFATYYCQHYNSYFVTFGQGTKVEIK | 0.0408
AB-007038 (antibody, V domains shown) VH: QMQLVESGGGVVQPGRSLRLSCTASGFTFSTYAMHWVRQSPGQGLQWVAVISYHSTNKYYEDSVRGRFTISRDNSKNTLYLQMNSLRAEDTAVYYCARDGYSSSFFDYWGQGTLVTVSS VL: DIQMTQSPSTLSASVGDRVAITCRASQSISRWLAWYQQQPGKAPKLLMSGASVLESGVPSRFSGSGSGTEFTLTISSLQPDDFATYYCQHYNSYFVTFGQGTKVEIK | 0.029
AB-007045 (antibody, V domains shown) VH: QMQLVESGGGVVQPGRSLRLSCTASGFTFSTYAMHWVRQSPGQGLQWVAVISYHSTNKYYEDSVRGRFTISRDNSKNTLYLQMNSLRAEDTAVYYCARDAYSSSFFDFWGQGTLVTVSS VL: DIQMTQSPSTLSASVGDRVAITCRASQSISRWLAWYQQQPGKAPKLLMSGASVLESGVPSRFSGSGSGTEFTLTISSLQPDDFATYYCQHYNSYFVTFGQGTKVEIK | 0.284
AB-007049 (antibody, V domains shown) VH: QMQLVESGGGVVQPGRSLRLSCTASGFTFSTYAMHWVRQSPGQGLQWVAVISNHETNKYYEDSVRGRFTISRDNSKNTLYLQMNSLRAEDTAVYYCARDGYSSSFFDFWGQGTLVTVSS VL: DIQMTQSPSTLSASVGDRVAITCRASQSISRWLAWYQQQPGKAPKLLMSGASVLESGVPSRFSGSGSGTEFTLTISSLQPDDFATYYCQHYNSYFVTFGQGTKVEIK | 0.152
AB-007046 (antibody, V domains shown) VH: QMQLVESGGGVVQPGRSLRLSCTASGFTFSTYAMHWVRQSPGQGLQWVAVISYHSTNKYYEDSVRGRFTISRDNSKNTLYLQMNSLRAEDTAVYYCARDGYSSSFFDFWGQGTLVTVSS VL: DIQMTQSPSTLSASVGDRVAITCRASQSISRWLAWYQQQPGKAPKLLMSGASVLESGVPSRFSGSGSGTEFTLTISSLQPDDFATYYCQHYYSYFVTFGQGTKVEIK | 0.0364
AB-007036 (antibody, V domains shown) VH: QMQLVESGGGVVQPGRSLRLSCTASGFTFSTYAMHWVRQSPGQGLQWVAVISYDSTNKYYEDSVRGRFTISRDNSKNTLYLQMNSLRAEDTAVYYCARDGYSSSFFDFWGQGTLVTVSS VL: DIQMTQSPSTLSASVGDRVAITCRASQSISRWLAWYQQQPGKAPKLLMSGASVLESGVPSRFSGSGSGTEFTLTISSLQPDDFATYYCQHYNSYFVTFGQGTKVEIK | 0.0967
AB-007032 (antibody, V domains shown) VH: QVQLVESGGGVVQPGRSLRLSCAASGFTFSTYAMHWVRQAPGQGLQWVAVISYHSTNKYYEDSVRGRFTISRDNSKNTLYLQMNSLRAEDTAVYYCARDGYSSSFFDFWGQGTLVTVSS VL: DIQMTQSPSTLSASVGDRVTITCRASQSISRWLAWYQQQPGKAPKLLISGASVLESGVPSRFSGSGSGTEFTLTISSLQPDDFATYYCQHYNSYFVTFGQGTKVEIK | 0.0469
AB-007048 (antibody, V domains shown) VH: QMQLVESGGGVVQPGRSLRLSCTASGFTFSTYSMHWVRQSPGQGLQWVAVISYHSTNKYYEDSVRGRFTISRDNSKNTLYLQMNSLRAEDTAVYYCARDGYSSSFFDFWGQGTLVTVSS VL: DIQMTQSPSTLSASVGDRVAITCRASQSISRWLAWYQQQPGKAPKLLMSGASVLESGVPSRFSGSGSGTEFTLTISSLQPDDFATYYCQHYNSYFVTFGQGTKVEIK | 0.437
AB-007031 (antibody, V domains shown) VH: QMQLVESGGGVVQPGRSLRLSCTASGFTFSTYAMHWVRQSPGQGLQWVAVISYHSTNKYYEDSVRGRFTISRDNSKNTLYLQMNSLRAEDTAVYYCARDGYSSSFFDFWGQGTLVTVSS VL: DIQMTQSPSTLSASVGDRVAITCRASQSISRWLAWYQQQPGKAPKLLISGASVLESGVPSRFSGSGSGTEFTLTISSLQPDDFATYYCQHYNSYFVTFGQGTKVEIK | 0.0496
AB-007039 (antibody, V domains shown) VH: QMQLVESGGGVVQPGRSLRLSCTASGFTFSTYAMHWVRQSPGQGLQWVAVISYHSTNKYYEDSVRGRFTISRDNSKNTLYLQMNSLRAEDTAVYYCARDGYSSSFFDFWGQGTLVTVSS VL: DIQMTQSPSTLSASVGDRVAITCRASQSISRWLAWYQQQPGKAPKLLMSGASVLESGVPSRFSGSGSGTEFTLTISSLQPDDFATYYCQHYNSYSVTFGQGTKVEIK | 0.106
